The assay concerns the target FLAG-tagged Sig-1R, Q99720. In words: co-immunoprecipitation (IP: V5, Western blot for FLAG, quantified). The conditions noted are these: chain shown with the change; n = 4; parent: est. 100; read off a plot.

Chain of FLAG-tagged Sig-1R, Q99720 (Q99720 whole entry): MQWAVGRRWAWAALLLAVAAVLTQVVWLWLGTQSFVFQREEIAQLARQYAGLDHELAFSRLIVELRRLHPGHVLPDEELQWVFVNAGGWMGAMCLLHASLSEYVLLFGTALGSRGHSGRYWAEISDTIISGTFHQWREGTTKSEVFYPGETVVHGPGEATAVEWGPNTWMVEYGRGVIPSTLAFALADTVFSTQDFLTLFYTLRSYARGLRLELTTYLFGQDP

B1: ΔIRE1-V5/His (ER lumenal domain of human IRE1), O75460 D123P (protein)
chain: IFGSTSTVTLPETLLFVSTLDGSLHAVSKRTGSIKWTLKEDPVLQVPTHVEEPAFLPDPNDGSLYTLGSKNNEGLTKLPFTIPELVQASPCRSSDGILYMGKKQPIWYVIDLLTGEKQQTLSSAFADSLCPSTSLLYLGRTEYTITMYDTKTRELRWNATYFDYAASLPEDDVDYKMSHFVSNGDGLVVTVDSESGDVLWIQNYASPVVAFYVWQREGLRKVMHINVAVETLRYLTFMSGEVGRITKWKYPFPKETEAKSKLTPTLYVGKYSTSLYASPSMVHEGVAVVPRGSTLPLLEGPQTDGVTIGDKGECVITPSTDVKFDPGLKSKNKLNYLRNYWLLIGHHETPLSASTKMLERFPNNLPKHRENVIPADSEKKSFEEVINLVDQTSENAPTTVSRDVEEKPAHAPARPEAPVDSMLKD
Regarding B1, the percent of parent amounted to 190%.

The record behind these values is paper PMC3799859.
